Where no end group is shown, it is not given here.
How the values were obtained:
[1] = target: Anti-CD28 Fab (SEQ ID NOs: 696, 697); assay: phage binding ELISA on anti-CD28 Fab; wells first incubated with CD28 antigen as competitor
Target sequence in this assay (VH, as listed by the source, chain 1 of 2): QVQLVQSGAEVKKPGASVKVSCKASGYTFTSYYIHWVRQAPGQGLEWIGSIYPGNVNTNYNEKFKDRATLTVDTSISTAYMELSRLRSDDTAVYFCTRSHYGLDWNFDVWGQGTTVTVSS
Target sequence in this assay (VL, as listed by the source, chain 2 of 2): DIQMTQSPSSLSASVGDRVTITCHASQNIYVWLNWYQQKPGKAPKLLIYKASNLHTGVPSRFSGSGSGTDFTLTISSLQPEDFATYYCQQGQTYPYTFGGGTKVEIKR
Description: (§1) After panning, phage infected bacteria were plated out and colonies picked into 96 well blocks. Clonal phage was then amplified and separated from bacterial cells via centrifugation.
(§2) Clonal phage were harvested as crude supematants and screened via standard ELISAs. […] Prior to the addition of clonal phage, wells were incubated with blocking buffer and CD28 antigen or blocking buffer alone. Without washing or aspirating, clonal phage supematants were then added to the wells and incubated for a short time. Wells were then washed followed by detection of bound phage using a horse radish conjugated anti-M13 antibody. Clonal phage of interest were then sent for sequence analysis.

[2] = target: Anti-CD28 Fab (SEQ ID NOs: 696, 697); assay: phage binding ELISA; biotinylated anti-CD28 Fab on neutravidin plate, clonal phage supernatant, anti-M13 HRP detection
Target sequence in this assay (VH, as listed by the source, chain 1 of 2): as the sequence (VH, as listed by the source, chain 1 of 2) above
Target sequence in this assay (VL, as listed by the source, chain 2 of 2): as the sequence (VL, as listed by the source, chain 2 of 2) above
Description: as §1, §2

[3] = target: Anti-CD28 Fab (SEQ ID NOs: 696, 697); assay: phage binding ELISA; captured anti-CD28 Fab pre-incubated with CD28 antigen as competitor, anti-M13 HRP detection
Target sequence in this assay (VH, as listed by the source, chain 1 of 2): as the sequence (VH, as listed by the source, chain 1 of 2) above
Target sequence in this assay (VL, as listed by the source, chain 2 of 2): as the sequence (VL, as listed by the source, chain 2 of 2) above

[4] = target: Anti-CD28 Fab (SEQ ID NOs: 696, 697); assay: phage binding ELISA; biotinylated anti-CD28 Fab on neutravidin plate, clonal phage supernatant, anti-M13 HRP detection; remark: listed apart in the source
Target sequence in this assay (VH, as listed by the source, chain 1 of 2): as the sequence (VH, as listed by the source, chain 1 of 2) above
Target sequence in this assay (VL, as listed by the source, chain 2 of 2): as the sequence (VL, as listed by the source, chain 2 of 2) above
Description: as §1, §2

[5] = target: T1, Anti-CD28 Fab (SEQ ID NOs: 696, 697); assay: phage ELISA; Fab-coated wells pre-incubated with CD28 antigen as competitor, anti-M13 HRP detection;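 note: crude clonal phage supernatants screened by ELISA, comparing wells pre-treated with CD28 antigen in blocker against wells given blocker only, bound phage read via HRP-linked anti-M13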
T1 construct: In the phage ELISA the Fab was biotinylated and captured on neutravidin coated plates
T1 sequence (VH, as listed by the source, chain 1 of 2): as the sequence (VH, as listed by the source, chain 1 of 2) above
T1 sequence (VL, as listed by the source, chain 2 of 2): as the sequence (VL, as listed by the source, chain 2 of 2) above
Description: as §1, §2

[6] = target: T1, Anti-CD28 Fab (SEQ ID NOs: 696, 697); assay: phage ELISA; biotinylated anti-CD28 Fab on neutravidin plate, clonal phage supernatant, anti-M13 HRP detection;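 note: crude supernatants of single phage clones picked after panning were screened for binding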
[7] = target: T2, Anti-CD28 Fab (SEQ ID NOs: 696, 697); assay: phage binding ELISA; biotinylated anti-CD28 Fab on neutravidin plate, bound phage detected with anti-M13 HRP;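 note: crude supernatants of clonal phage screened, wells pretreated with blocking buffer with or without CD28 antigen before brief phage incubation, washed, then bound phage detected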
T2 construct: The Fab was biotinylated and captured on neutravidin coated plates in the phage ELISA
T2 sequence (VH, as listed by the source, chain 1 of 2): as the sequence (VH, as listed by the source, chain 1 of 2) above
T2 sequence (VL, as listed by the source, chain 2 of 2): as the sequence (VL, as listed by the source, chain 2 of 2) above
Description: as §1, §2

[8] = target: T2, Anti-CD28 Fab (SEQ ID NOs: 696, 697); assay: phage binding ELISA on anti-CD28 Fab plate; competitor: CD28 antigen pre-incubated in the wells
Description: as §1, §2

| Binder | Anti-CD28 Fab signal in the presence of CD28 [1] | Anti-CD28 Fab signal (phage binding ELISA) [2] | Anti-CD28 Fab signal in the presence of CD28 (phage binding ELISA) [5] | Anti-CD28 Fab signal (phage binding ELISA) [6] | other results |
| --- | --- | --- | --- | --- | --- |
| YCAGHLEIYMNKCL [Phage-733] | 0.07 | 1.94 | – | – | – |
| YCEGHSIQYMAKCL (cysteine pairing not given here; also: displayed on phage by fusion to pIII, pIII and linker sequence not given here) [Phage-702] | – | – | – | – | Anti-CD28 Fab signal in the presence of CD28 [3]: 0.06; Anti-CD28 Fab (SEQ ID NOs: 696, 697) signal [4]: 2.02 |
| YCDGHSALYMWKCL [Phage-726] | 0.08 | 1.96 | – | – | – |
| YCEGHRAEYMEKCL (tested as crude clonal phage supernatant) [Phage-738] | – | – | 0.06 | 1.93 | – |
| YCEGHSPEYMTKCL (cysteine pairing not given here; also: displayed on phage by fusion to pIII, pIII and linker sequence not given here) [Phage-701] | – | – | – | – | Anti-CD28 Fab signal in the presence of CD28 [3]: 0.08; Anti-CD28 Fab (SEQ ID NOs: 696, 697) signal [4]: 2.02 |
| YCDGHLIEYMYKCL [Phage-728] | 0.09 | 1.95 | – | – | – |
| YCAGHSPEFMEKCL (tested as crude clonal phage supernatant) [Phage-747] | – | – | 0.06 | 1.91 | – |
| YCDGHSPDYIWKCL (tested as crude clonal phage supernatant) [Phage-739] | – | – | 0.1 | 1.93 | – |
| YCAGHSVEYMAKCL [Phage-725] | 0.08 | 1.96 | – | – | – |
| YCDGHSPEYMTKCL (tested as crude clonal phage supernatant) [Phage-744] | – | – | 0.07 | 1.93 | – |
| YCEGHLSQYMEKCL [Phage-731] | 0.08 | 1.95 | – | – | – |
| YCDGHLNEYMEKCL (tested as crude clonal phage supernatant) [Phage-748] | – | – | 0.06 | 1.91 | – |
| YCDGHLEQYRAKCL [Phage-723] | 0.08 | 1.96 | – | – | – |
| YCDGHSPEHIRKCL [Phage-732] | 0.11 | 1.94 | – | – | – |
| YCDGHEAQYMSKCL (cysteine pairing not given here; also: displayed on phage by fusion to pIII, pIII and linker sequence not given here) [Phage-706] | – | – | – | – | Anti-CD28 Fab signal in the presence of CD28 [3]: 0.09; Anti-CD28 Fab (SEQ ID NOs: 696, 697) signal [4]: 2.01 |
| YCEGHAREHMAKCL (cysteine pairing not given here; also: displayed on phage by fusion to pIII, pIII and linker sequence not given here) [Phage-700] | – | – | – | – | Anti-CD28 Fab signal in the presence of CD28 [3]: 0.08; Anti-CD28 Fab (SEQ ID NOs: 696, 697) signal [4]: 2.02 |
| YCEGHSLEYMGKCL (cysteine pairing not given here; also: displayed on phage by fusion to pIII, pIII and linker sequence not given here) [Phage-703] | – | – | – | – | Anti-CD28 Fab signal in the presence of CD28 [3]: 0.09; Anti-CD28 Fab (SEQ ID NOs: 696, 697) signal [4]: 2.02 |
| YCDGHLPEYLGKCL [Phage-724] | 0.08 | 1.96 | – | – | – |
| YCSGHAPEYMAKCL (tested as crude clonal phage supernatant) [Phage-737] | – | – | 0.06 | 1.94 | – |

| Binder | Anti-CD28 Fab signal in the presence of CD28 [1] | Anti-CD28 Fab signal (phage binding ELISA) [2] | Anti-CD28 Fab signal in the presence of CD28 (phage binding ELISA) [5] | Anti-CD28 Fab signal (phage binding ELISA) [6] | other results |
| --- | --- | --- | --- | --- | --- |
| YCDGHSHEYMEKCL (cysteine pairing not given here; also: displayed on phage by fusion to pIII, pIII and linker sequence not given here) [Phage-707] | – | – | – | – | Anti-CD28 Fab signal in the presence of CD28 [3]: 0.06; Anti-CD28 Fab (SEQ ID NOs: 696, 697) signal [4]: 2.01 |
| YCDGHASEYMWKCL (tested as crude clonal phage supernatant) [Phage-736] | – | – | 0.06 | 1.94 | – |
| YCMGHQPEYMQKCL (tested as crude clonal phage supernatant) [Phage-741] | – | – | 0.08 | 1.93 | – |
| YCEGHLAQYMWKCL (Tested as clonal phage supernatant) [Phage-750] | – | – | – | – | Anti-CD28 Fab (SEQ ID NOs: 696, 697) signal [7]: 1.91; Anti-CD28 Fab signal in the presence of CD28 [8]: 0.12 |
| YCDGHAPEYMEKCL (cysteine pairing not given here; also: displayed on phage by fusion to pIII, pIII and linker sequence not given here) [Phage-704] | – | – | – | – | Anti-CD28 Fab signal in the presence of CD28 [3]: 0.09; Anti-CD28 Fab (SEQ ID NOs: 696, 697) signal [4]: 2.01 |
| YCDGHLVEYMSKCL [Phage-730] | 0.08 | 1.95 | – | – | – |
| YCDGHSAEYMQKCL [Phage-729] | 0.07 | 1.95 | – | – | – |
| YCEGHLSEYMAKCL [Phage-734] | 0.2 | 1.94 | – | – | – |
| YCDGHLKEYQEKCL (Tested as clonal phage supernatant) [Phage-749] | – | – | – | – | Anti-CD28 Fab (SEQ ID NOs: 696, 697) signal [7]: 1.91; Anti-CD28 Fab signal in the presence of CD28 [8]: 0.09 |
| YCDGHMGVYYWKCL (cysteine pairing not given here; also: displayed on phage by fusion to pIII, pIII and linker sequence not given here) [Phage-705] | – | – | – | – | Anti-CD28 Fab signal in the presence of CD28 [3]: 0.09; Anti-CD28 Fab (SEQ ID NOs: 696, 697) signal [4]: 2.01 |
| YCEGHSMEYMAKCL (tested as crude clonal phage supernatant) [Phage-745] | – | – | 0.07 | 1.92 | – |
| YCDGHMPEYMEKCL (tested as crude clonal phage supernatant) [Phage-742] | – | – | 0.09 | 1.93 | – |
| YCEGHLPIYLSKCL [Phage-735] | 0.08 | 1.94 | – | – | – |
| YCDGHSSEYMIKCL [Phage-727] | 0.06 | 1.95 | – | – | – |
| YCDGHSAEYLAKCL (tested as crude clonal phage supernatant) [Phage-743] | – | – | 0.08 | 1.93 | – |
| YCMGHAPEYMEKCL (tested as crude clonal phage supernatant) [Phage-740] | – | – | 0.07 | 1.93 | – |
| YCQGHLPEYMSKCL (cysteine pairing not given here; also: displayed on phage by fusion to pIII, pIII and linker sequence not given here) [Phage-708] | – | – | – | – | Anti-CD28 Fab signal in the presence of CD28 [3]: 0.06; Anti-CD28 Fab (SEQ ID NOs: 696, 697) signal [4]: 2.01 |
| YCAGHMPEYIDKCL (tested as crude clonal phage supernatant) [Phage-746] | – | – | 0.06 | 1.92 | – |
| YCEGHRPEYMQKCL (cysteine pairing not given here; also: displayed on phage by fusion to pIII, pIII and linker sequence not given here) [Phage-699] | – | – | – | – | Anti-CD28 Fab signal in the presence of CD28 [3]: 0.11; Anti-CD28 Fab (SEQ ID NOs: 696, 697) signal [4]: 2.03 |
